The results in this text go back to publication PMC4318453.

One experiment addresses heat shock protein 40 (UniProt P25685). The experiment is described as follows: FRET or BRET; positive control of the FRET experiment, results not shown. For orientation: Bioluminescence resonance energy transfer reports proximity on the nanometre scale.
For experiment [1], the target named is Proliferating cell nuclear antigen, purified recombinant (UniProt P12004).

Chain of UniProt P25685 (P25685 whole entry): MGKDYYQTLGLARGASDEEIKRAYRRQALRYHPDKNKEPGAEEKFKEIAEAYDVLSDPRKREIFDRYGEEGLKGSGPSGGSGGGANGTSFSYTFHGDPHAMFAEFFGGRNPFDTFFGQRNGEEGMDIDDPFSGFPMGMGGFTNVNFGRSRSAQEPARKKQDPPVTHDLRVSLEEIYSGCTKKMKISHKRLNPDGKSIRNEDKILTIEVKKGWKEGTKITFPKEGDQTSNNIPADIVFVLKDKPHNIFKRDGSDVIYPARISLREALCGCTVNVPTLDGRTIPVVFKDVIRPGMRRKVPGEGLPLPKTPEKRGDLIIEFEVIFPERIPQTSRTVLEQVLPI

For “mitogen-activated protein kinase MK5 (from UniProt Q8IW41 1-473) (enzyme)”, the FRET efficiency with heat shock protein 40 came out at 15%.

B1: BKPyV agnoprotein, purified full-length (natural protein)
chain: MVLRQLSRQASVKVGKTWTGTKKRAQRIFIFILELLLEFCRGEDSVDGKNKSTTALPAVKDSVKDS
On to B1, for which the PCNA:pol δ-mediated in vitro DNA synthesis (polydA/oligodT, [3H]dTTP incorporation) with increasing amounts of agnoprotein in experiment [1] was found to be 50%.
